Substitutions are numbered along the chain they refer to. Numbers in names are those of the source.
B1: Pfu Y7A/P36H: modified Pfu DNA polymerase with Y7A and P36H (protein, UniProt P61875 1-775, looked up, variant Y7A P36H)
DNA polymerase: MILDVDAITEEGKPVIRLFKKENGKFKIEHDRTFRHYIYALLRDDSKIEEVKKITGERHGKIVRIVDVEKVEKKFLGKPITVWKLYLEHPQDVPTIREKVREHPAVVDIFEYDIPFAKRYLIDKGLIPMEGEEELKILAFDIETLYHEGEEFGKGPIIMISYADENEAKVITWKNIDLPYVEVVSSEREMIKRFLRIIREKDPDIIVTYNGDSFDFPYLAKRAEKLGIKLTIGRDGSEPKMQRIGDMTAVEVKGRIHFDLYHVITRTINLPTYTLEAVYEAIFGKPKEKVYADEIAKAWESGENLERVAKYSMEDAKATYELGKEFLPMEIQLSRLVGQPLWDVSRSSTGNLVEWFLLRKAYERNEVAPNKPSEEEYQRRLRESYTGGFVKEPEKGLWENIVYLDFRALYPSIIITHNVSPDTLNLEGCKNYDIAPQVGHKFCKDIPGFIPSLLGHLLEERQKIKTKMKETQDPIEKILLDYRQKAIKLLANSFYGYYGYAKARWYCKECAESVTAWGRKYIELVWKELEEKFGFKVLYIDTDGLYATIPGGESEEIKKKALEFVKYINSKLPGLLELEYEGFYKRGFFVTKKRYAVIDEEGKVITRGLEIVRRDWSEIAKETQARVLETILKHGDVEEAVRIVKEVIQKLANYEIPPEKLAIYEQITRPLHEYKAIGPHVAVAKKLAAKGVKIKPGMVIGYIVLRGDGPISNRAILAEEYDPKKHKYDAEYYIENQVLPAVLRILEGFGYRKEDLRYQKTRQVGLTSWLNIKKS
B2: KOD N210D: modified KOD DNA polymerase with N210D, deficient in 3′-5′ exonuclease activity (exo(−)) (protein, listed as Thermococcus kodakaraensis)
chain: MILDTDYITEDGKPVIRIFKKENGEFKIEYDRTFEPYFYALLKDDSAIEEVKKITAERHGTVVTVKRVEKVQKKFLGRPVEVWKLYFTHPQDVPAIRDKIREHPAVIDIYEYDIPFAKRYLIDKGLVPMEGDEELKMLAFDIETLYHEGEEFAEGPILMISYADEEGARVITWKNVDLPYVDVVSTEREMIKRFLRVVKEKDPDVLITYDGDNFDFAYLKKRCEKLGINFALGRDGSEPKIQRMGDRFAVEVKGRIHFDLYPVIRRTINLPTYTLEAVYEAVFGQPKEKVYAEEITTAWETGENLERVARYSMEDAKVTYELGKEFLPMEAQLSRLIGQSLWDVSRSSTGNLVEWFLLRKAYERNELAPNKPDEKELARRRQSYEGGYVKEPERGLWENIVYLDFRSLYPSIIITHNVSPDTLNREGCKEYDVAPQVGHRFCKDFPGFIPSLLGDLLEERQKIKKKMKATIDPIERKLLDYRQRAIKILANSYYGYYGYARARWYCKECAESVTAWGREYITMTIKEIEEKYGFKVIYSDTDGFFATIPGADAETVKKKAMEFLKYINAKLPGALELEYEGFYKRGFFVTKKKYAVIDEEGKITTRGLEIVRRDWSEIAKETQARVLEALLKDGDVEKAVRIVKEVTEKLSKYEVPPEKLVIHEQITRDLKDYKATGPHVAVAKRLAARGVKIRPGTVISYIVLKGSGRIGDRAIPFDEFDPTKHKYDAEYYIENQVLPAVERILRAFGYRKEDLRYQKTRQVGLSAWLKPKGT
B3: KOD D141A/E143A: modified KOD DNA polymerase with D141A and E143A, deficient in 3′-5′ exonuclease activity (exo(−)) (protein, listed as Thermococcus kodakaraensis)
chain: B2 chain with D141A, E143A, D210N
B4: KOD I142R: modified KOD DNA polymerase with I142R, deficient in 3′-5′ exonuclease activity (exo(−)) (protein, listed as Thermococcus kodakaraensis)
chain: B2 chain with I142R, D210N

Assays:
Format in all cases: biochemical
[1] = tested on: human genomic DNA (about 1.3 kb) with dUTP added; assay: Evaluation of uracil (dUTP) sensitivity by PCR with dUTP added to the reaction; details: dUTP added to PCR (FIGS. 3 and 4)
Protocol: The uracil sensitivity of the modified DNA polymerase of the present invention can be evaluated by PCR. For example, a dUTP solution is added at a final concentration of 0.5 μM to 200 μM to a common PCR reaction solution containing DNA as a template, a buffer, magnesium, dNTPs, primers, and a DNA polymerase to be evaluated, and thermal cycling is performed. After the reaction, the presence or absence of PCR products is confirmed by ethidium bromide-stained agarose electrophoresis, and the uracil sensitivity can be evaluated by the concentration of accepted dUTP. With a DNA polymerase having high uracil sensitivity, the extension reaction is inhibited by the addition of a small amount of dUTP, and PCR products cannot be confirmed. With a DNA polymerase having low uracil sensitivity, gene amplification by PCR can be confirmed without problem, even if a high concentration of dUTP is added. The modified DNA polymerase with low uracil sensitivity in the present invention refers to a DNA polymerase such that when optimum thermal cycling is performed using any primers and DNA as a template in a reaction buffer optimum for the enzyme, even if a high concentration of dUTP is added, an extension reaction is not inhibited and PCR products can be confirmed, compared to wild-type DNA polymerase, which has no mutation.
More specifically, 10× PCR buffer included in KOD-Plus-Ver. 2 (produced by Toyobo Co. Ltd.) or 10× PCR buffer included in Pfu DNA Polymerase (produced by Agilent) is used; dUTP (produced by Roche) is added to 50 μl of individual reaction solutions containing 1× PCR buffer, 1.5 mM MgSO4, dNTPs (dATP, dTTP, dCTP, and dGTP) in an amount of 0.2 mM, primers represented by SEQ ID NOs: 25 and 26 in an amount of 15 pmol for amplifying about 1.3 kb, 10 ng of human genomic DNA (produced by Roche), and 1 U of each respective enzyme, to final concentrations of 0.5, 5, 50, 100, and 200 μM. PCR is performed using a GeneAmp PCR system 9700 (Applied Biosystems) on the following schedule; preliminary reaction at 94° C. for 30 seconds, followed by 30 cycles, each cycle consisting of 98° C. for 10 seconds, 65° C. for 30 seconds, and 68° C. for 1 minute and 30 seconds. After the completion of each individual reaction, 5 μl of each of the resulting reaction solutions is subjected to agarose electrophoresis, followed by ethidium bromide staining. The uracil sensitivity can be evaluated by confirming amplified DNA fragments of about 1.3 kb under ultraviolet irradiation.
PCR was performed by the following method to evaluate uracil sensitivity. For PCR, components included in KOD-Plus-Ver. 2 (produced by Toyobo Co. Ltd.) were used. dUTP (produced by Roche) was added to 50 μl of individual reaction solutions containing 1× PCR buffer, 1.5 mM MgSO4, dNTPs (dATP, dTTP, dCTP, dGTP) in an amount of 0.2 mM, primers represented by SEQ ID NOs: 25 and 26 in an amount of 15 pmol for amplifying about 1.3 kb, 10 ng of human genomic DNA (produced by Roche), and 1 U of each respective enzyme, to final concentrations of 0.5, 5, 50, 100, and 200 μM. PCR was performed using a GeneAmp PCR system 9700 (produced by Applied Biosystems) on the following schedule: preliminary reaction at 94° C. for 30 seconds, followed by 30 cycles, each cycle consisting of 98° C. for 10 seconds, 65° C. for 30 seconds, and 68° C. for 1 minute and 30 seconds. After the completion of each individual reaction, 5 μl of each of the resulting reaction solutions was subjected to agarose electrophoresis, followed by ethidium bromide staining. Under ultraviolet irradiation, amplified DNA fragments of about 1.3 kb were confirmed. FIGS. 3, 4, 7, and 8 show the results.

[2] = tested on: 482 bp of human β-globin; assay: PCR amplification of 482 bp of human β-globin with dUTP in place of dTTP; details: 100% dUTP instead of dTTP (FIGS. 5 to 8)
Protocol: 482 bp of human β-globin was amplified to compare the amplification difference between the case of using dTTP and the case of using dUTP in PCR, and the sensitivity to dUTP was examined. For amplification, each enzyme was used after being mixed with 1 μg of a KOD antibody per U of the enzyme. For PCR, components included in KOD-Plus-Ver. 2 (produced by Toyobo Co. Ltd.) were used. General dNTPs (dATP, dTTP, dCTP, dGTP) in an amount of 0.2 mM were added to 50 μl of individual reaction solutions, and dNTPs (dATP, dUTP, dCTP, dGTP) in an amount of 0.2 mM in which dTTP was replaced by dUTP were added to 50 μl of individual reaction solutions. The reaction solutions contained 1× PCR buffer, 1.5 mM MgSO4, primers represented by SEQ ID NOs: 27 and 28 in an amount of 15 pmol for amplifying […], 10 ng of human genomic DNA (produced by Roche), and 1 U of each respective enzyme mixed with the antibody. PCR was performed using a GeneAmp PCR system 9700 (produced by Applied Biosystems) on the following schedule: preliminary reaction at 94° C. for 2 minutes, followed by 35 cycles, each cycle consisting of 98° C. for 10 seconds and 68° C. for 1 minute. After the completion of each individual reaction, each of the resulting reaction solutions was analyzed using to a DNA-1000 kit for MultiNA (produced by Shimadzu Corporation) to confirm amplified DNA fragments. FIGS. 5 and 6 show the results.

[3] = tested on: 1.3 kbp, 2.8 kbp, and 3.6 kbp of human β-globin; assay: Amplification of long-chain DNA in PCR using dUTP; details: 1.3, 2.8, 3.6 kbp; 100% dUTP (FIGS. 9 and 10)
Protocol: Amplification of 1.3 kbp, 2.8 kbp, and 3.6 kbp of human β-globin in PCR using dUTP was compared. For amplification, each enzyme was used after being mixed with 1 μg of a KOD antibody per U of the enzyme. For PCR, components included in KOD-Plus-Ver. 2 (produced by Toyobo Co. Ltd.) were used. 50 μl of individual reaction solutions containing 1× PCR buffer, 1.5 mM MgSO4, dNTPs (dATP, dUTP, dCTP, dGTP) in an amount of 2 mM in which dTTP was replaced by dUTP, primers in an amount of 15 pmol (SEQ ID NOs: 25 and 26 for amplification of 1.3 kbp; SEQ ID NOs: 26 and 29 for amplification of 2.8 kbp; SEQ ID NOs: 30 and 31 for amplification of 3.6 kbp), 10 ng of human genomic DNA (produced by Roche), and 1 U of each respective enzyme mixed with the antibody were used. PCR was performed using a GeneAmp PCR system 9700 (Applied Biosystems) on the following schedule: preliminary reaction at 94° C. for 2 minutes, followed by 35 cycles, each cycle consisting of 98° C. for 10 seconds, 65° C. for 30 seconds, and 68° C. for about 1 minute per kbp (1 minute and 30 seconds for amplification of 1.3 kbp; 3 minutes for amplification of 2.8 kbp; 4 minutes for amplification of 3.6 kbp). As a control, amplification was also performed using Taq DNA polymerase. Taq DNA polymerase produced by Toyobo Co. Ltd. mixed with Anti-Taq High (produced by Toyobo Co. Ltd.) was used. 50 μl of a reaction solution containing 1× buffer included in Blend Taq, dNTPs (dATP, dUTP, dCTP, dGTP) in an amount of 2 mM in which dTTP was replaced by dUTP, primers in an amount of 10 pmol the same as the above), 10 ng of human genomic DNA (produced by Roche), and 2.5 U of the enzyme mixed with the antibody was used. PCR was performed using a GeneAmp PCR system 9700 (produced by Applied Biosystems) on the following schedule: preliminary reaction at 94° C. for 2 minutes, followed by 35 cycles, each cycle consisting of 94° C. for 30 seconds, 65° C. for 30 seconds, and 68° C. for about 1 minute per kbp (1 minute and 30 seconds for amplification of 1.3 kbp; 3 minutes for amplification of 2.8 kbp; 4 minutes for amplification of 3.6 kbp). After the completion of each individual reaction, 5 μl of each of the resulting reaction solutions was subjected to agarose electrophoresis, followed by ethidium bromide staining, and the amount of amplified DNA fragments was confirmed under ultraviolet irradiation. FIGS. 9 and 10 show the results.

Molecule | sensitivity to dUTP / amount of amplification, comparison with single mutants or wild type [1] | PCR amplification of 482 bp with dUTP [2] | amount of amplification of long-chain DNA with dUTP [3]
KOD Y7A/P36K: modified KOD DNA polymerase with Y7A and P36K | more tolerant of the addition of high concentration of dUTP and provided a larger amount of amplification | allowed for PCR amplification | –
B1 | provided a larger amount of amplification | – | provided larger amounts of amplification
B2 | less sensitive to dUTP than the wild-type DNA polymerase | – | –
B3 | less sensitive to dUTP than the wild-type DNA polymerase | – | –
B4 | less sensitive to dUTP than the wild-type DNA polymerase | – | –

— US20150218534A1, “MODIFIED DNA POLYMERASE” (TOYOBO CO., LTD., priority 2012, published 2015)
